Laboratory results: US20210393711A1 (YISSUM RESEARCH DEVELOPMENT COMPANY OF THE HEBREW …, published 2021)

Target: T1, mouse Toll-like receptor 2 (mouse, UniProt Q9QUN7 25-784)
T1 construct: whole, on cells; also called murine TLR2; TLR2
Assay: anti-His whole-mount immunofluorescence of mouse maxillary gingival tissue (oral tissue that expresses TLR2) 24 h after oral lavage with scaTLR2-secreting Lactobacillus
Description: The ability of Lactobacillus transformants to secrete functional single chain antibody (scAb) in the oral cavity, and the ability of the scAb to bind to oral tissue that express TLR2 was next assessed. Mice were administered by one oral lavage the following Lactobacillus transformants: EV (empty vector transformed, negative control), scahTLR4 (single chain antibody against human TLR4, negative control), and scaTLR2 (single chain antibody against TLR2). After 24 h the mice were sacrificed, Lactobacillus persistence was assessed by culturing viable bacteria and enumerating CFU, and the maxillary gingival tissues were processed for whole mounting and stained with an antibody to the His-tag present in the single chain antibodies Similar Lactobacillus CFU were recovered in all three groups. […] In the control groups there was no detection of His-positive staining (FIG. 7A-B). Therefore, scaTLR2 is secreted by the transformed Lactobacilli in vivo, and avidly binds to oral mucosal tissue.

T1 sequence (Q9QUN7 25-784): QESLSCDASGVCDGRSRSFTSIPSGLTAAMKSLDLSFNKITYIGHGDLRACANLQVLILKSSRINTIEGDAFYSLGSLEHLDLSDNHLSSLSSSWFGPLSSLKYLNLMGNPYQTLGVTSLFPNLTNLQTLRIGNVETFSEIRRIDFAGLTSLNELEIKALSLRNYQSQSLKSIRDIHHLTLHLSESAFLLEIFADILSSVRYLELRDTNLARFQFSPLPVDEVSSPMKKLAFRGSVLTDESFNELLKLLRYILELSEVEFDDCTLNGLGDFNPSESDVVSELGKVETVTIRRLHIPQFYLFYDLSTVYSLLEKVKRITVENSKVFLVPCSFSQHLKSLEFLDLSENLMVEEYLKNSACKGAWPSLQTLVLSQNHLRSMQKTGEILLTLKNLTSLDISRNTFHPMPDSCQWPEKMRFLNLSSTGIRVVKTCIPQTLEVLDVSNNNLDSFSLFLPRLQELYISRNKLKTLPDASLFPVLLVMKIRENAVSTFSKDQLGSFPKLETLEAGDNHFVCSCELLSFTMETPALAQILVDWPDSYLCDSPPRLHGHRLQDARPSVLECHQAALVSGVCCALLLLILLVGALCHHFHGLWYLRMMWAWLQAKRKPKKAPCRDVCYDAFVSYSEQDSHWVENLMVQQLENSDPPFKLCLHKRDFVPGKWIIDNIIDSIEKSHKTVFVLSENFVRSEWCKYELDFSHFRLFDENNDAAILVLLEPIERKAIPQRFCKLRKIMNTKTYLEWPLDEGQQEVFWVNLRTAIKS

binding result: binds
B1: anti-TLR2 single chain antibody (scAb) secreted by transformed Lactobacillus, built from the variable regions of mAb T2.5 (scFv)
scFv: QVQLQQSGPELVNPGASVKLSCKASGFTFTTYGINWVKQGPGQGLEWIGWIYPRDGSTNFNENFKDKAALTVDTSSSTAYMELHSLTSEDSAVYFCARLTGGTFLDYWGQGTTVTVSSGGGGSGGGGSGGGGSDIELTQSPASLAVSLGQRATISCRASESVEYYGTSLMQWYQQKPGQPPKLLIFGASNVESGVPVRFSGSGSGTDFSLNIHPVEEDDIVMYFCQQSRKLPWTFGGGTKLEIKR
notes: also called scaTLR2; anti-TLR2 scAb
